This data set concerns the molecule itself. Kind of data set: ThT aggregation kinetics + TEM; 5 μM core peptide, 20 μM ThT, with or without 2.5% fibrillar seeds of the same peptide; 25 °C, 40 h, shaken 5 s at 100 rpm before each reading; TEM at the end.

B1: TDP-43 core peptide 279–360 (peptide, UniProt Q13148 279-360, looked up)
chain: NPGGFGNQGGFGNSRGGGAGLGNNQGSNMGGGMNFGAFSINPAMMAAAQAALQSSWGMMGMLASQQNQSGPSGNNQNQGNMQ
notes: also called amyloid core peptide; source: lyophilized, disaggregated in HFIP/TFA
As for B1, the binding result is listed as “binds”.
